T1: RNA polymerase III subunit C53 (S. cerevisiae, UniProt P25441 1-422)
T1 sequence: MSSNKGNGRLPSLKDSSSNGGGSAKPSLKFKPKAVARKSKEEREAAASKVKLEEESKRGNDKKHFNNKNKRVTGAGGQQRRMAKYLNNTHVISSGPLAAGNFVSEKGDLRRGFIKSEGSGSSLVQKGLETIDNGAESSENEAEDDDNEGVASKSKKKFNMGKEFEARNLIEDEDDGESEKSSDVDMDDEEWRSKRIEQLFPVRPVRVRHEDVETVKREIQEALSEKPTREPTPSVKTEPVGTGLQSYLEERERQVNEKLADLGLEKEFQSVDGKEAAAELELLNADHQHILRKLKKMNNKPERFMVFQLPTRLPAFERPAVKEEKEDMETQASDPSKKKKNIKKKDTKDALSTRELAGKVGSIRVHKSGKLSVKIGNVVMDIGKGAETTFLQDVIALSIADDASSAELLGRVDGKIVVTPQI

T2: RNA polymerase III subunit C128 (S. cerevisiae, UniProt P22276 1-1149)
T2 sequence: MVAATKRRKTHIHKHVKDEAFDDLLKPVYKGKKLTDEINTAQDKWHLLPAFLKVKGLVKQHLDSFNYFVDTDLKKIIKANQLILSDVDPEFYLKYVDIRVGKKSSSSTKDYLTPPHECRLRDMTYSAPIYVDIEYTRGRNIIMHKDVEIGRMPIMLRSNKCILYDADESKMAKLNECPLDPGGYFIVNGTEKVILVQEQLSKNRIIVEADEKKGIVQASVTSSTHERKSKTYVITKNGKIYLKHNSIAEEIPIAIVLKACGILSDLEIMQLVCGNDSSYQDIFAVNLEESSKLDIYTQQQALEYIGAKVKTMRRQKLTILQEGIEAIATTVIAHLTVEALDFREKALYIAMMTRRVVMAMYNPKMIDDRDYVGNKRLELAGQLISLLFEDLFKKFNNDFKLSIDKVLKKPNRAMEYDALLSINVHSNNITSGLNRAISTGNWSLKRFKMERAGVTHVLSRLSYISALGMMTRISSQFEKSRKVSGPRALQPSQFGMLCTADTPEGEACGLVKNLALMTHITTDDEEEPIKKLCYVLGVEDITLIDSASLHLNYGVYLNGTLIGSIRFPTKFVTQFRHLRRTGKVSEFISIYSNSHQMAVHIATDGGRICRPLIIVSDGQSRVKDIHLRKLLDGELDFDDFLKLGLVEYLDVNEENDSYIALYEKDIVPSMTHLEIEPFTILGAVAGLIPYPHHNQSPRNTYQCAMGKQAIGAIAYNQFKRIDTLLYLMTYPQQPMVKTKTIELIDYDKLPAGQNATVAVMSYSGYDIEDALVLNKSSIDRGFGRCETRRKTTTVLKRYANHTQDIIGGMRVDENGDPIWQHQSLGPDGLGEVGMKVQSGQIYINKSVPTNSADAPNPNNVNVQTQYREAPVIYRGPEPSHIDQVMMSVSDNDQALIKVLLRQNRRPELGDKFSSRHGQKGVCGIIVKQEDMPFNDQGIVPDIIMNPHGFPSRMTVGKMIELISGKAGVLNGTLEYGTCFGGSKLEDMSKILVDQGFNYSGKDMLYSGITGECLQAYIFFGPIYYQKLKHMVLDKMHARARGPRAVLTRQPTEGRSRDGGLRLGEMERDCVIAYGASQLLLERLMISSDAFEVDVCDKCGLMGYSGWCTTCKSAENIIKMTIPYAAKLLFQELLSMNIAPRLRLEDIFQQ

T3: RNA polymerase III subunit C160 (S. cerevisiae, UniProt P04051 1-1460)
T3 sequence: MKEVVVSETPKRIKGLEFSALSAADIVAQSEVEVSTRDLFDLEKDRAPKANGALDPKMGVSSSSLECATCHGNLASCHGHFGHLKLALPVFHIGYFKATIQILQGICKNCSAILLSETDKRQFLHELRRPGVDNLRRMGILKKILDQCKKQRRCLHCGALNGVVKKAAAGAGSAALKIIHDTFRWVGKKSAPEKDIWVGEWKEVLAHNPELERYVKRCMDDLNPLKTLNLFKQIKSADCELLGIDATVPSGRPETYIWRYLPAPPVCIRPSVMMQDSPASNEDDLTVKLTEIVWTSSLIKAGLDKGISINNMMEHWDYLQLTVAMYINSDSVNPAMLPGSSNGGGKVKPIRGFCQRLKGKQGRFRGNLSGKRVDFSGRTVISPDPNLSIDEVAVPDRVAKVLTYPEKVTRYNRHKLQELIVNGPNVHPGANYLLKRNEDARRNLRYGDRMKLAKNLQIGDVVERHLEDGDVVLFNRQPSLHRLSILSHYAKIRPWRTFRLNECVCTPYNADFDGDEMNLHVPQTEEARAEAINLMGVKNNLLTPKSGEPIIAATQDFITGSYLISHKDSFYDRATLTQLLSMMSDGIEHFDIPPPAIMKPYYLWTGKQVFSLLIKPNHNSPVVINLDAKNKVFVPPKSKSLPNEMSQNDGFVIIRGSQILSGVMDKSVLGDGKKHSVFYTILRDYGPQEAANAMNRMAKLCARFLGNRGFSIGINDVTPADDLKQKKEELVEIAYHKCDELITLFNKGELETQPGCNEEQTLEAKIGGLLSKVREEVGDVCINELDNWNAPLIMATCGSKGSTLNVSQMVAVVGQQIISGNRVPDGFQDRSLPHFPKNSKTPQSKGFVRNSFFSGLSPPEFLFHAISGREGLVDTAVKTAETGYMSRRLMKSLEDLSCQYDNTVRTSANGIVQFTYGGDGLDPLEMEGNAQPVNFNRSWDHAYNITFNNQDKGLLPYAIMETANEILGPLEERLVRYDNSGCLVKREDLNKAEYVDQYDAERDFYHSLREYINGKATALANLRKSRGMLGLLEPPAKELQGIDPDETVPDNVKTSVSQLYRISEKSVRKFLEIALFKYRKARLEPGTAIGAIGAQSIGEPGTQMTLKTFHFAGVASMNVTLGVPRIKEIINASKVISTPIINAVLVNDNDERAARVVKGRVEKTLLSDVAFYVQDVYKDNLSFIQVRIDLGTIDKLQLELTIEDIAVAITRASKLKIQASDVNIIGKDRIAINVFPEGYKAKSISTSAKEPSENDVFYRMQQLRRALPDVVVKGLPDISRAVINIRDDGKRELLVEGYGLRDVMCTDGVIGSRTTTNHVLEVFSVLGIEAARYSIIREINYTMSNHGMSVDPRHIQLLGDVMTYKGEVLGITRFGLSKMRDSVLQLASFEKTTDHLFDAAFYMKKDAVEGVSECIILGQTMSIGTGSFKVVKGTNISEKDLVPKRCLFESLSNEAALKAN

T4: RNA polymerase III stalk subunit C25 (S. cerevisiae, UniProt P35718 1-212)
T4 sequence: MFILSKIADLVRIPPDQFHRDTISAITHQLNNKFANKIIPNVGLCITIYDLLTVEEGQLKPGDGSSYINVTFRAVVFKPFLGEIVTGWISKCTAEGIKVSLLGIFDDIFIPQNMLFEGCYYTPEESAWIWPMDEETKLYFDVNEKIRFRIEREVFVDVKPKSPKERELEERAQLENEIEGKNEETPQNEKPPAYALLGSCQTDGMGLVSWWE

B1: RNA polymerase III subunit C37 (natural protein, S. cerevisiae)
chain: MSIDNKLFVTEEDEEDRTQDRADVEDESNDIDMIADENGTNSAIANEQEEKSEEVKAEDDTGEEEEDDPVIEEFPLKISGEEESLHVFQYANRPRLVGRKPAEHPFISAARYKPKSHLWEIDIPLDEQAFYNKDKAESEWNGVNVQTLKGVGVENNGQYAAFVKDMQVYLVPIERVAQLKPFFKYIDDANVTRKQEDARRNPNPSSQRAQVVTMSVKSVNDPSQNRLTGSLLAHKVADEEANIELTWAEGTFEQFKDTIVKEAEDKTLVALEKQEDYIDNLV

Legend:
Assay in all cases: cryo-EM structure
[1] = target: T1, RNA polymerase III subunit C53
[2] = target: T2, RNA polymerase III subunit C128
[3] = target: T3, RNA polymerase III subunit C160
[4] = target: T4, RNA polymerase III stalk subunit C25
[5] = target: B1

Row | binding result [1] | binding result [2] | binding result [3] | binding result [4] | binding result [5] | Binder
1 | binds | binds | – | – | – | B1
2 | – | – | binds | binds | – | RNA polymerase III stalk subunit C17 (natural protein, S. cerevisiae) MKVLEERNAFLSDYEVLKFLTDLEKKHLWDQKSLAALKKSRSKGKQNRPYNHPELQGITRNVVNYLSINKNFINQEDEGEERESSGAKDAEKSGISKMSDESFAELMTKLNSFKLFKAEKLQIVNQLPANMVHLYSIVEECDARFDEKTIEEMLEIISGYA
3 | – | binds | binds | – | binds | RNA polymerase III subunit C11 (natural protein, S. cerevisiae) MLSFCPSCNNMLLITSGDSGVYTLACRSCPYEFPIEGIEIYDRKKLPRKEVDDVLGGGWDNVDQTKTQCPNYDTCGGESAYFFQLQIRSADEPMTTFYKCVNCGHRWKEN

Source: article PMC4681132 (Nature, 2015)
